From the supplement of paper PMC7125110
± gives the standard error. For some of these results: Variants at the floor of the assay were thinned out.

B1: glmS ribozyme (parent)
chain: AUAAAAGCGCCAGAACUACAGAAAUGUAGUUGACGAGGAGGAGGUUUAUCGAAUUUUCGGCGGAUGCCUCCAAA

Key:
Conditions in all cases: with glucosamine-6-phosphate
glucosamine-6-phosphate [1] = variants of: B1; experiment: kcat; higher = faster cleavage; RNA array
Outline: (§1)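 kcat and KM were obtained from weighted Michaelis–Menten fits across concentrations of kobs values. Those came from one- or two-exponential decay fits to per-tile medians normalised to baseline and to non-cleaving reference variants. The variants were barcoded ribozymes transcribed in situ by E. coli RNA polymerase on sequenced MiSeq chips and tracked through a hybridised Cy3 probe at 37 °C, with 40 μM to 10 mM glucosamine-6-phosphate in HEPES/KCl/Mg(OAc)2 buffer flowed in.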

glucosamine-6-phosphate [2] = variants of: B1; experiment: KM; higher = weaker cofactor use; RNA array
Outline: as §1

glucosamine-6-phosphate [3] = variants of: B1; experiment: self-cleavage kobs at 160 uM GlcN6P; higher = faster cleavage; RNA array
Outline: as §1

glucosamine-6-phosphate [4] = variants of: B1; experiment: self-cleavage kobs at 640 uM GlcN6P; higher = faster cleavage; RNA array
Outline: as §1

glucosamine-6-phosphate [5] = variants of: B1; experiment: self-cleavage kobs at 2500 uM GlcN6P; higher = faster cleavage; RNA array
Outline: as §1

glucosamine-6-phosphate [6] = variants of: B1; experiment: self-cleavage kobs at 10000 uM GlcN6P; higher = faster cleavage; RNA array
Outline: as §1

glucosamine-6-phosphate [7] = variants of: B1; experiment: self-cleavage kobs at 40 uM GlcN6P; higher = faster cleavage; RNA array
Outline: as §1

Variant | kcat (glucosamine-6-phosphate [1]) [s⁻¹] | KM (glucosamine-6-phosphate [2]) [µM] | self-cleavage kobs at 160 uM GlcN6P (glucosamine-6-phosphate [3]) [s⁻¹] | self-cleavage kobs at 640 uM GlcN6P (glucosamine-6-phosphate [4]) [s⁻¹] | self-cleavage kobs at 2500 uM GlcN6P (glucosamine-6-phosphate [5]) [s⁻¹] | self-cleavage kobs at 10000 uM GlcN6P (glucosamine-6-phosphate [6]) [s⁻¹] | self-cleavage kobs at 40 uM GlcN6P (glucosamine-6-phosphate [7]) [s⁻¹]
G41U U45C | 0.000379 ± 2.8e-05 | 1140 ± 210 | 4.06e-05 ± 1.5e-05 | 0.000157 ± 4e-05 | 0.000273 ± 5.6e-05 | 0.000331 ± 4.7e-05 | 
A12G G29C | 0.000167 ± 5.4e-05 |  |  | 3.94e-05 ± 1.1e-05 | 4.98e-05 ± 1.3e-05 | 0.000123 ± 1.4e-05 | 
U49C C67G | < 1e-05 |  | < 1e-05 |  |  | < 1e-05 | < 1e-05
A39U C67U | 0.0107 ± 0.0018 | 2220 ± 500 | 0.000573 ± 8.1e-05 | 0.00228 ± 0.00025 | 0.00631 ± 0.001 | 0.00878 ± 0.00079 | 0.000223 ± 1.9e-05
G29C G32A | 0.00108 ± 0.00019 | 1960 ± 740 |  | 0.000251 ± 8.5e-05 | 0.000762 ± 0.00038 | 0.0009 ± 0.00015 | 3.72e-05 ± 1.5e-05
G43U A64G | 0.000133 ± 1.2e-05 | 6370 ± 1300 |  |  | 3.85e-05 ± 8.6e-06 | 8.1e-05 ± 8.2e-06 | 
G41C U56G | 0.000101 ± 5.7e-06 | 2280 ± 390 |  | 2.47e-05 ± 1e-05 | 4.78e-05 ± 1.5e-05 | 8.29e-05 ± 1.2e-05 | 
U47A A48U | 0.000219 ± 1.3e-05 | 1570 ± 190 |  | 6.18e-05 ± 1e-05 | 0.000143 ± 2.2e-05 | 0.000181 ± 3.1e-05 | 
U46A | 0.00402 ± 0.00054 | 1880 ± 330 | 0.000271 ± 1.3e-05 | 0.000926 ± 2.8e-05 | 0.00341 ± 0.00031 | 0.00344 ± 9.1e-05 | 9.25e-05 ± 2.1e-06
A12G U69C | 0.000893 ± 0.00026 | 3900 ± 1900 |  | 0.000152 ± 2e-05 | 0.000243 ± 5.4e-05 | 0.0007 ± 8.2e-05 | 
G13C U31A | 0.000405 ± 2e-05 | 3100 ± 280 |  | 7.16e-05 ± 1.3e-05 | 0.00017 ± 3.3e-05 | 0.000314 ± 4.2e-05 | 
G37A G66C | 0.000578 ± 0.0001 | 2250 ± 630 | 4.54e-05 ± 1.4e-05 | 0.000117 ± 1.8e-05 | 0.000357 ± 5.8e-05 | 0.000439 ± 8.7e-05 | 
G13U A39C | 0.000234 ± 2e-05 | 4490 ± 600 |  | 2.78e-05 ± 6e-06 | 8.65e-05 ± 1e-05 | 0.000158 ± 2.7e-05 | 
G38C A52C | < 1e-05 |  | < 1e-05 |  |  | < 1e-05 | < 1e-05
A36C C58A | 1.11e-05 ± 3.9e-06 |  |  |  |  |  | < 1e-05
U57G C61G | 1.3e-05 ± 4.8e-06 |  |  |  |  |  | 
G29C A52U C70G | 2.41e-05 ± 5.5e-06 |  |  |  |  |  | < 1e-05

Variant | kcat (glucosamine-6-phosphate [1]) [s⁻¹] | KM (glucosamine-6-phosphate [2]) [µM] | self-cleavage kobs at 160 uM GlcN6P (glucosamine-6-phosphate [3]) [s⁻¹] | self-cleavage kobs at 640 uM GlcN6P (glucosamine-6-phosphate [4]) [s⁻¹] | self-cleavage kobs at 2500 uM GlcN6P (glucosamine-6-phosphate [5]) [s⁻¹] | self-cleavage kobs at 10000 uM GlcN6P (glucosamine-6-phosphate [6]) [s⁻¹] | self-cleavage kobs at 40 uM GlcN6P (glucosamine-6-phosphate [7]) [s⁻¹]
U54G G59C | < 1e-05 |  |  | < 1e-05 |  |  | 
A12U A42G U56A C67U | 0.004 ± 0.00068 | 794 ± 200 |  | 0.00156 ± 0.00046 |  | 0.00431 ± 0.0015 | 0.000207 ± 5.3e-05
U30A A53C | 0.00232 ± 0.00044 | 3590 ± 950 | 0.000107 ± 2.5e-05 | 0.000357 ± 6.9e-05 | 0.000882 ± 0.00014 | 0.00196 ± 0.00049 | 
C11U U49G | 1.33e-05 ± 1.3e-06 |  |  |  |  |  | < 1e-05
A52U U54G | 0.000276 ± 3.6e-05 | 3750 ± 860 |  | 4.52e-05 ± 9.2e-06 | 0.000107 ± 1e-05 | 0.000207 ± 2.8e-05 | 
U31A G66U | 0.000713 ± 5.1e-05 | 1380 ± 190 | 7.61e-05 ± 1.5e-05 | 0.000206 ± 3.9e-05 | 0.000466 ± 7.9e-05 | 0.000631 ± 7.6e-05 | 2.99e-05 ± 1.3e-05
U31G C34A G60U C67A | < 1e-05 |  |  |  |  |  | 
A14C U69G | 4.01e-05 ± 6.9e-06 |  | 6.28e-05 ± 2.1e-05 | 5.28e-05 ± 2.2e-05 | 4.06e-05 ± 9.1e-06 | 3.03e-05 ± 1.2e-05 | 
C16U U69A | 0.000112 ± 2.4e-05 |  | 6.03e-05 ± 2e-05 | 9.39e-05 ± 3.7e-05 | 0.00022 ± 6.1e-05 | 0.000115 ± 2e-05 | 7.08e-05 ± 2e-05
C10A G59A C68G U69C | 3.77e-05 ± 1.1e-05 |  |  |  |  |  | 
A15U A33U | 5.77e-05 ± 6.8e-06 |  |  |  | 5.26e-05 ± 1e-05 | 5.13e-05 ± 7.3e-06 | 
A53U U65G | 0.00461 ± 0.00078 | 4560 ± 1200 | 0.000238 ± 5.5e-05 | 0.000611 ± 0.00011 | 0.00152 ± 0.0002 | 0.00323 ± 0.00034 | 3.59e-05 ± 7e-06
U56C C67U | 3.78e-05 ± 8.1e-07 | 7870 ± 360 | < 1e-05 |  |  |  | < 1e-05
U56C C67A | 4.27e-05 ± 1.5e-06 | 701 ± 180 |  |  | 3.57e-05 ± 1.4e-05 | 3.95e-05 ± 7.5e-06 | 
A6U U69C | 8.65e-05 ± 8.1e-06 |  |  | 6.1e-05 ± 2.4e-05 | 8.15e-05 ± 2.4e-05 | 7.96e-05 ± 1.8e-05 | 
G7A G32A C50G | 4.21e-05 ± 1.3e-05 |  | 4.85e-05 ± 1.9e-05 |  | 6.89e-05 ± 2.8e-05 |  | 4.2e-05 ± 1.6e-05
G9A C71U | 5.71e-05 ± 4.6e-06 |  |  |  |  |  | 
